The supplement of paper PMC10567573

Test: protein stability index of a GFP-peptide fusion (GPS, HEK-293T) (PSI 1-6); higher = more stable
Conditions: c terminus: native
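Also: lentivirally expressed fusion library, cells FACS-sorted into six equal-sized GFP/DsRed ratio bins, PSI computed from sequencing read fractions per bin weighted by bin number.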

Q: With DGWIRVSSDNVADLHEKYSGSTPK [PSMB5 addK] as the protein, how does the protein stability index (parent: NP_002788.1) read?
A: 4.81

Q: Which protein stability index (parent: NP_006221.1) does the source give for CQPISFSGFGAEDDDLGGLGLGPK [POLD2 addK] here?
A: 4.81

Q: Which protein stability index (parent: NP_009172.2) does the source give for LPALFTDLYSQEITAEEAREALPK [SNF8 addK] here?
A: 5.17

Q: Which protein stability index (parent: NP_015628.1) does the source give for EQRNSRWNTVLRAVKAKTHHLEPK [TRPA1 addK] here?
A: 5.03

Q: For HSLRAVSTDPPHHDHHDEFCLMPK [BEX2 addK], which protein stability index (parent: NP_116010.1) is on record?
A: 4.67
